Source: US20240254227A1 (Alector, published 2024)
Where a chain is given by its changes, count along the chain named.

T1: recombinant murine CD300LB overexpressed on BaF/3 cells (mouse, UniProt Q3U497 18-209)
T1 sequence: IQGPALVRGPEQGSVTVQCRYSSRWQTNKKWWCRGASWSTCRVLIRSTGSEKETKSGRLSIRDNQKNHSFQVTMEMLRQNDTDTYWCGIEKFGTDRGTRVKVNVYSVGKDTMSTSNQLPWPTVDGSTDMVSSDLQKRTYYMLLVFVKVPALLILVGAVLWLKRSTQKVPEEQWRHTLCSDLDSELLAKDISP

T2: murine CD300LB stably expressed on Jurkat cells (mouse, UniProt Q3U497 18-209)
T2 construct: also called muCD300LB; mouse CD300LB
T2 sequence: T1 sequence

T3: murine CD300LB on wild type mouse bone marrow macrophages (mouse, UniProt Q3U497 18-209)
T3 construct: Endogenous receptor on primary cells; also called mCD300LB; Wt BMM
T3 sequence: T1 sequence

B1: anti-CD300LB antibody CD-12 (antibody, V domains shown)
VH: QIQLVQSGPELKKPGETVKISCKASGYTFTDYSMHWVRQAPGKGLKWMAWINTETGEATHADDFKGRFDFSLDTSASTAYLQIKNLKNEDTGIYFCVCYGSSYGMDYWGQGTSVTVSS
VL: DIVLTQSPASLPVSLGQRATISCRASKSVRTSGASYMHWYQQKPGQPPKLLIYLASNLKSGVPTRFSGSGSGTDFTLNIHPVEEEDAATYYCQHNREVPPTFGGGTKLEIK
B2: anti-CD300LB antibody CD-16 (antibody, V domains shown)
VH: QIQLVQSGPELKKPGETVKISCKASGYTFTDYSMHWVKQAPGKGLKWMAWINTETGEPTYADDFRGRFAFSLETSGRTAYLEINNLRNEDTATYFCVTYGSSYGMAYWGQGTSVTVSS
VL: B1 VL with P12A, R30S, T31R, A34Y, M37L, N57K, K59E, T64A, E84A, V98I
B3: anti-CD300LB antibody CD-15 (antibody, V domains shown)
VH: QIQLVQSGPELKKPGETVKISCQVSGYTFTDYSMHWLKQAPGKGLKWMAWINTETGESTYTDEFKGRFVFSLETSVRTAYLKINNLKNEDTATYFCGTYGSSYGMAYWGQGTSVTVSS
VL: B1 VL with R30S, A34S, M37L, N57K, K59E, T64A, S67R
B4: anti-CD300LB antibody CD-11 (antibody, V domains shown)
VH: QIQLVQSGPEVKKPGETVKISCKASGYTLTDYSMHWVMQTPGTGLKWMAWMNTETGEPTYADDFKGRFAFSLETSAGTAYLQIDNLKNEDTATYFCATYGKSYGMKYWGQGTSVTVSS
VL: DIVLTQSPPSLAVSLGQRATISCRATKSVSPYLHWYQQTPGQPPKLLIYLASNLDSGVPARFSGSGSGTDFTLNIHPVEEEDAATYYCQHNKELPPTFGGGTRLEIK

What follows are binders tested against T1, recombinant murine CD300LB … (assay: cell-based or functional assay).

| Binder | Luminescence in BaF/3 |
| --- | --- |
| B1 | 22800 |
| B2 | 792 |
| B3 | 23000 |
| B4 | 22400 |

These binders were tested against T1, recombinant murine CD300LB … (assay: flow cytometry, BaF/3 cells overexpressing muCD300LB).
Protocol: Purified anti-CD300LB antibodies of the present disclosure were evaluated for their binding affinity to either Jurkat cells overexpressing recombinant huCD300LB or BaF/3 cells overexpressing recombinant muCD300LB. Binding of anti-CD300LB antibodies to the cells was determined as follows. Cells were harvested, washed, and labeled with propidium iodide for viability discrimination. After washing the cells with PBS, 1×10⁵ cells were aliquoted per well in 96-well U-bottom plates and incubated with 100 μL of purified anti-CD300LB antibody at various concentrations in FACS buffer (PBS+2% FBS). After this primary incubation, the supernatant was removed via centrifugation, the cells washed twice with 150 μL of ice-cold FACS buffer, and then incubated with the appropriate secondary antibody on ice for 30 minutes. Following the secondary antibody incubation, the cells were again washed twice with ice-cold FACS buffer and resuspended in a final volume of 200 L FACS buffer. Flow cytometry analysis was then performed using the FACSCanto system (BD Biosciences).

| Binder | gMFI |
| --- | --- |
| B1 | 9800 gMFI |
| B2 | 8970 gMFI |
| B3 | 8330 gMFI |
| B4 | 10900 gMFI |

The binders below were run against T2, murine CD300LB stably expressed on … (assay: flow cytometry, stable Jurkat cells, 10 ug/mL, isotype subtracted).
Protocol: Purified anti-CD300LB antibodies of the present disclosure were analyzed for cross-reactivity to other murine CD300 family members stably expressed in Jurkat cells (generation of which is described above). Cells were counted and labeled with 200 nM CFSE, 500 nM VioBlue, or a combination of the two to discriminate between muCD300LB, Parental cells, CD300F, and the other CD300 family members. Cells were washed thoroughly with PBS containing 2% fetal bovine serum then resuspended at a total of 240,000 cells per well. Purified antibodies at 10 μg/mL were added and incubated for one hour before the cells were washed twice again and stained with an APC-labeled anti-mouse secondary. Cells were then analyzed using a BD FACSCanto II. Antibodies were analyzed for specific binding to muCD300LB by FlowJo software by gating on live cells, then the APC gMFI calculated for each labeled population by subtracting the gMFI of the isotype control. The gMFI results of the analysis are presented below in Table 4.

| Binder | gMFI |
| --- | --- |
| B1 | 4210 gMFI |
| B2 | 4570 gMFI |
| B3 | 4140 gMFI |
| B4 | 4660 gMFI |

The binders below were run against T3, murine CD300LB on wild type mouse bone … (assay: flow cytometry, wild type mouse bone marrow macrophages, 10 ug/mL, isotype subtracted).
Protocol: To further examine the specificity of the anti-CD300LB antibodies to muCD300LB, bone marrow macrophages (BMM) from wild type (WT) and CD300LB knockout mice (KO) were analyzed for antibody binding by flow cytometry. Bone marrow from these mice was harvested and plated into three 20 cm PETRI dishes in complete media containing 50 ng/mL murine M-CSF (Peprotech). Media was changed every three days until day 6, when cells were harvested. Cells were detached with PBS 3 mM EDTA, washed and counted and plated at 100,000 cells/well in a 96 well plate. Cells were incubated with murine Fc block (Clone 2.4G2, BD) then with 10 μg/mL anti-CD300LB antibodies for 30 minutes on ice. […] Cells were washed twice more with 150 μL FACS buffer then resuspended to 100 μL in FACS buffer analyzed using a BD Canto II flow cytometer to calculate the geometric MFI minus the gMFI of the isotype control. Dead cells were stained with live/dead staining kit (Invitrogen).

| Binder | gMFI |
| --- | --- |
| B1 | 413 gMFI |
| B2 | 233 gMFI |
| B3 | 256 gMFI |
| B4 | 349 gMFI |
